Data: publication PMC3542269

Molecular target: clathrin (human (endogenous in PC-3)) (UniProt Q00610)
Experiment: co-IP; PC-3 lysate (50 mM HEPES pH 5.5, 1 mM EDTA, 150 mM NaCl, 1% Triton X-100); anti-clathrin (1 µg) or anti β-actin (5 µg) antibody overnight at 4°C, Protein A Sepharose; profilin 1 detected by Western blot; cells treated 24 h with 10 µM AMS-36 (cathepsin X inhibitor) or DMSO

Sequence of UniProt Q00610 (Q00610 whole entry): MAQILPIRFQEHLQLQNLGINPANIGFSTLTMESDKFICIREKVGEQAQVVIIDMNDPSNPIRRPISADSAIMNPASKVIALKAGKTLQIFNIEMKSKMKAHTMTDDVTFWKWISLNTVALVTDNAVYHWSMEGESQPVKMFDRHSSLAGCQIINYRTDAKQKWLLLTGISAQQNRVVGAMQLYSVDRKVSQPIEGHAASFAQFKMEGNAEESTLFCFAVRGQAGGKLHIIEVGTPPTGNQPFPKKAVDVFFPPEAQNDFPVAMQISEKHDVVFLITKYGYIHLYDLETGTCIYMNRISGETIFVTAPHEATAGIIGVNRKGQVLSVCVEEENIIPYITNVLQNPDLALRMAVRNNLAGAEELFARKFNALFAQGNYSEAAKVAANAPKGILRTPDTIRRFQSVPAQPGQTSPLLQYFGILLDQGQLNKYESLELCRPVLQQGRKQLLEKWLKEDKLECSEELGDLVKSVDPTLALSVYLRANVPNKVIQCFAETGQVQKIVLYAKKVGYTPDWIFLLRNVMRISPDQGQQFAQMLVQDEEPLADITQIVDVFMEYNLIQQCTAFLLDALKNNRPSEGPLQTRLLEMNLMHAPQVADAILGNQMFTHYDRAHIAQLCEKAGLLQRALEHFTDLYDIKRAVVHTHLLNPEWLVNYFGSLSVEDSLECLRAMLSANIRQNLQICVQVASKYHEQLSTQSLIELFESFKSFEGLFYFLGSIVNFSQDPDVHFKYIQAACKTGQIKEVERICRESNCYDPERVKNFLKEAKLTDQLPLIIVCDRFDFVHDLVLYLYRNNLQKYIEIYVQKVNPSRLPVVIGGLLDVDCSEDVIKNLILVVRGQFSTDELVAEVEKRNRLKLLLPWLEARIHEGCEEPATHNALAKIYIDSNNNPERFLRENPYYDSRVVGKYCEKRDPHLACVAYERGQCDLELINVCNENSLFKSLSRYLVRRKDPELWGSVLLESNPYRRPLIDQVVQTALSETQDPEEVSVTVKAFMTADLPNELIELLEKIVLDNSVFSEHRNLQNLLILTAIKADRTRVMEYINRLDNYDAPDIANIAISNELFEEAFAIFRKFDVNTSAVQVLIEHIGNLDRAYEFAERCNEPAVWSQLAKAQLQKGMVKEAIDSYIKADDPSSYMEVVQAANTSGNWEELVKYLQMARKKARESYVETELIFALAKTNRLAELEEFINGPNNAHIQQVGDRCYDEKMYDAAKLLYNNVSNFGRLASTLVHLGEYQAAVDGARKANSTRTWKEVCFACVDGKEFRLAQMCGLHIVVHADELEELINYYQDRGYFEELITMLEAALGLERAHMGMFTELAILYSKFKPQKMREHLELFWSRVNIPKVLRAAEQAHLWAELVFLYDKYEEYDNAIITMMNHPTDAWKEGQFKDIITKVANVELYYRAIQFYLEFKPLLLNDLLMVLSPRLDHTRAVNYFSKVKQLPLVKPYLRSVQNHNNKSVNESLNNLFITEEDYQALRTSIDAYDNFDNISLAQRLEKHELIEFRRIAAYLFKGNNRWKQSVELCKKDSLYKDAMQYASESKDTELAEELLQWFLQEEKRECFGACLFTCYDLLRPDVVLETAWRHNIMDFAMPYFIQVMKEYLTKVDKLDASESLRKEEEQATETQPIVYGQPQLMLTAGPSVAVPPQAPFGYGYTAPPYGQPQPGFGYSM
Sequence of profilin 1 (P07737 whole entry): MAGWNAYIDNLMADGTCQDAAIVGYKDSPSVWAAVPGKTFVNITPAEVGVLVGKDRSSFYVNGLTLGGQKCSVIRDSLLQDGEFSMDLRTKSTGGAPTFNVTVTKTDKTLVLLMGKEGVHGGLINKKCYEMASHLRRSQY

more profilin 1 co-precipitated with clathrin from AMS-36-treated than from DMSO-treated cells: 44%
Substance: profilin 1 (from UniProt P07737 1-140) (natural protein)
